Consider three substances from paper PMC6963987.

Holding throughout (assay): SPR; Fcγ receptors immobilised, trastuzumab glycan variants as analyte; Biacore T200; relative binding (%) normalised with trastuzumab starting material; n = 3; procedure in ref. 54
Experiment [1] deals with FcγRIIIa V158.
Experiment [2] concerns the target FcγRIIIa F158 (UniProt P08637).
Experiment [3] deals with FcγRIIb/c (UniProt P31994).
Experiment [4] has as its target FcγRIIa R131.

Chain of UniProt P31994 (P31994 43-217): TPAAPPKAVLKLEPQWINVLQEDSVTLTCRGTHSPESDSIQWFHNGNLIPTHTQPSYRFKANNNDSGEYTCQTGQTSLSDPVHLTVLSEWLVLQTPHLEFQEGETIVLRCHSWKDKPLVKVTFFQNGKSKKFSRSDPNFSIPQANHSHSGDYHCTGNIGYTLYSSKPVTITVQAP

For “Trastuzumab hyper-galactosylated variant G2F (antibody)”, the relative binding (% of trastuzumab starting material) in experiment [1] amounted to 120%; in experiment [2] it was 124%.
With “Trastuzumab α-2,3-sialylated variant G2S2F ST3 (antibody)”, the relative binding (% of trastuzumab starting material) in experiment [2] amounted to 62%.
In the case of “Trastuzumab α-2,6-sialylated variant G2S2F ST6 (antibody)”, the relative binding (% of trastuzumab starting material) was found to be 121% in experiment [1], 150% in experiment [2], 162% in experiment [3] and 130% in experiment [4].
